Assay results reported in patent US9777044B2, “GLUT-1 as a receptor for HTLV envelopes and its uses” (CENTRE NATIONAL DE LA RECHERCHE SCIENTIFIQUE (CNRS), priority 2003, dated 2017).

Columns and labels:
[1] = test system: 293T cells and Jurkat T cells; assay: RBD binding after overnight culture in the absence of glucose; parameters: species or system human; details: both 293T cells and Jurkat T cells
Protocol: Cell culture. 293T human embryonic kidney and HeLa cervical carcinoma cells were grown in Dulbecco's modified Eagle medium (DMEM) with high glucose (4.5 g/l) and Jurkat T-cells were grown in RPMI supplemented with 10% fetal bovine serum (FBS) at 37° C. in a 5% CO2-95% air atmosphere. For glucose starvation experiments, cells were grown in either glucose-free DMEM (Life Technologies) or glucose-free RPMI—(Dutscher) with 10% dialyzed FBS (Life Technologies) and glucose (1 g/l) was supplemented when indicated.
Binding assays. Binding assays were carried out as previously described [Manel, 2003]. Briefly, 5×10^5 cells (293T, HeLa, Jurkat or freshly isolated human erythrocytes) were incubated with 500 μl of H1RBD, H2RBD or ARBD supernatants for 30 min at 37° C., washed with PBA (1% BSA, 0.1% sodium azide in PBS), and incubated with a sheep anti-rabbit IgG antibody conjugated to fluorescein isothiocyanate (Sigma). […] Binding was analyzed on a FACSCalibur (Becton Dickinson) and data analysis was performed using CellQuest (Becton Dickinson) and WinMDI (Scripps) softwares.

[2] = molecular target: T1, GLUT-1 (Homo sapiens, UniProt P11166); assay: RBD binding to cells overexpressing GLUT-1
T1 construct: factor Xa cleavage site (C); His (C); expressed in transfected cells
T1 sequence (P11166 1-492): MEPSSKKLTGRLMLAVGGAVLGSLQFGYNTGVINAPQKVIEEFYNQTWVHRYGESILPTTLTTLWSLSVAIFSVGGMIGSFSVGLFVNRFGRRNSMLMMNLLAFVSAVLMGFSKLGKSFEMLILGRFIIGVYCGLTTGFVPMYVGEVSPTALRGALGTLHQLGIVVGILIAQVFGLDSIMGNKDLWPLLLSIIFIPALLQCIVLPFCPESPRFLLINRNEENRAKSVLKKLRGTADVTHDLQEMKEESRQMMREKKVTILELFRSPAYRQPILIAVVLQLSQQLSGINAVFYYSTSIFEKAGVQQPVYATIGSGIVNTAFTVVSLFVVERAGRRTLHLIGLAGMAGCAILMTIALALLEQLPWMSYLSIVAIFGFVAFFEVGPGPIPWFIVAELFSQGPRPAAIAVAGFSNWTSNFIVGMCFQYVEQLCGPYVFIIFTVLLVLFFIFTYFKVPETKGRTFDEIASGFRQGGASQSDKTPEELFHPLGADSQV
Source text: In order to directly test the ability of HTLV envelopes to bind GLUT-1, we derived a tagged GLUT-1 expression vector and overexpressed this protein in HeLa cells. […] GLUT-3 is the closest isoform to GLUT-1, and transports glucose with kinetics similar to that of GLUT-1. Thus, we derived a tagged GLUT-3 expression vector. […] To determine if GLUT-1 transfected cells were directly responsible for the observed increased in H1RBD binding, we derived fluorescent tagged GLUT-1 and GLUT-3 to uniquevocally identity GLUT-overexpressing cells in the course of our FACS analysis. […] Consequently, we tested if HTLV glycoproteins directly interact with GLUT-1 proteins. To this end, we evaluated the ability of H1RBD to immunoprecipitate GLUT-1. […] Therefore, the GLUT-1 glucose transporter is an essential component of the HTLV envelope receptor.
Expression vectors. Full length envelope expression vectors for HTLV-1 (pCEL/2[Denesvre, 1995]) and Friend ecotropic MLV (pCEL/F [Denesvre, 1995]), have been previously described. For the HTLV-2 envelope, a fragment from pHTE2 [Rosenberg, 1998] encompassing the tax, rex and env genes and the 3′ LTR was inserted in the pCSI [Battini, 1999] vector (pCSIX.H2). Full length envelope expression vectors for amphotropic MLV (pCSI.A), or devoid of its R peptide (pCSI.AΔR), and H183FEnv that contains the N-terminal 183 amino acids of the HTLV-1 receptor-binding domain in the F-MLV envelope background, as well as truncated envelope expression vectors, derived from pCSI and encoding either of the first 215 residues of HTLV-1 SU (H1RBD), the first 178 residues of HTLV2-SU (H2RBD) or the first 397 residues of the amphotropic murine leukemia virus (MLV) SU (Amp), fused to a C-terminal rabbit IgG Fc tag (rFc) or to EGFP (H2RBD-GFP). All point mutations introduced in HTLV-1 and -2 RBD constructs were generated using the quickchange site-directed mutagenesis method and mutations were verified by sequencing. Human Glut-1 and Glut-3 cDNA were amplified by PCR from the pLib HeLa cDNA library (Clontech), and inserted into pCHIX, a modified version of the pCSI vector that contains a cassette comprising a factor Xa cleavage site, two copies of the hemagglutinin (HA) tag, and a histidine tag. The resulting construct (pCHIX.hGLUT1) encodes a GLUT-1 protein with a HA-His tag at the C-terminal end. GLUT-1 and GLUT-3 were also inserted in a modified pCSI vector containing a DsRed2 C-terminal tag. Similarly, human CD147 was amplified from 293T total RNA by RT-PCR and inserted into the pCHIX backbone in frame with the HA-His tag (pCHIX.hCD147).
Binding assays. […] Binding was analyzed on a FACSCalibur (Becton Dickinson) and data analysis was performed using CellQuest (Becton Dickinson) and WinMDI (Scripps) softwares.

[3] = molecular target: T1, GLUT-1; assay: Immunoprecipitation of GLUT-1-HA with anti-rabbit-Fc beads; type: binding; details: co-expression with GLUT-1 in 293T cells, probed with anti-HA antibody
Source text: FIGS. 4a-4c GLUT-1 is a receptor for HTLV envelopes. FIG. 4a, Binding of H1RBD, H2RBD, H2RBD D102A mutant, and ARBD to control 293T cells or 293T cells overexpressing either GLUT-1 or PiT2. FIG. 4b, Binding of H2RBD-EGFP to cells overexpressing GLUT-1-HA or GLUT-3-HA, and corresponding immunoblots using an anti-HA antibody. FIG. 4c, Immunoprecipitation of GLUT-1-HA from 293T cells transfected with either an irrelevant construct, GLUT-1 alone, H1RBD alone, H1RBD Y114A alone, GLUT-1 with H1RBD or GLUT-1 with H1RBD Y114A expression vectors Immunoprecipitation was performed using anti-rabbit-Fc beads and probed with an anti-HA antibody. Total cell extracts were blotted using an anti-rabbit Fc or an anti-HA antibody.
In order to directly test the ability of HTLV envelopes to bind GLUT-1, we derived a tagged GLUT-1 expression vector and overexpressed this protein in HeLa cells. […] GLUT-3 is the closest isoform to GLUT-1, and transports glucose with kinetics similar to that of GLUT-1. Thus, we derived a tagged GLUT-3 expression vector. […] To determine if GLUT-1 transfected cells were directly responsible for the observed increased in H1RBD binding, we derived fluorescent tagged GLUT-1 and GLUT-3 to uniquevocally identity GLUT-overexpressing cells in the course of our FACS analysis. […] To this end, we evaluated the ability of H1RBD to immunoprecipitate GLUT-1. […]

B1: H1RBD: first 215 residues of HTLV-1 SU fused to a C-terminal rabbit IgG Fc tag (rFc) (protein)
chain: DYSPSCCTLTIGVSSYHSKPCNPAQPVCSWTLDLLALSADQALQPPCPNLVSYSSYHATYSLYLFPHWIKKPNRNGGGYYSASYSDPCSLKCPYLGCQSWTCPYTGAVSSPYWKFQQDVNFTQEVSRLNINLHFSKCGFPFSLLVDAPGYDPIWFLNTEPSQLPPTAPPLLPHSNLDHILEPSIPWKSKLLTLVQVDVPRDCGCKPCICTVPEVSSVFIFPPKPKDVLTITLTPKVTCVVVDISKDDPEVQFSWFVDDVEVHTAQTQPREEQFNSTFRSVSELPIMHQDWLNGKEFKCRVNSAAFPAPIEKTISKTKGRPKAPQVYTIPPPKEQMAKDKVSLTCMITDFFPEDITVEWQWNGQPAENYKNTQPIMDTDGSYFVYSKLNVQKSNWEAGNTFTCSVLHEGLHNHHTEKSLSHSPGK
increase of binding after overnight culture in the absence of glucose [1]: 2 fold
H1RBD binding to cells overexpressing GLUT-1-DsRed2 ([2]; fluorescent tagged GLUT-1, FACS analysis): significant increase
binding upon GLUT-1 overexpression ([2]; tagged GLUT-1 expression vector, HeLa cells / 293T cells (FIG. 4a legend)): dramatically increased
detection of GLUT-1 upon immunoprecipitation with anti-rabbit-Fc-beads [3]: readily detected
